The series concerns Escherichia coli TOP10. Kind of series: shrunken log2 fold change of peptide-encoding DNA abundance (4.5 h post-induction vs induction); higher = less antimicrobial activity (less host growth inhibition). As to conditions: time post-induction: 4.5 h; library: site-saturation at positions 5, 18, 19, 20.

The text below walks through data of the supplement of paper PMC9112550, “Optimization of the antimicrobial peptide Bac7 by deep mutational scanning” (BMC Biology, 2022).
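Also: peptides expressed intracellularly from a pBAD plasmid library in pooled LB shake-flask culture, induced with 0.3% L-arabinose, DNA abundance read by NGS, three biological replicates, DESeq2 with apeglm shrinkage.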

Regarding RRIRVRPPRLPRPRPRPRVLPRP, the “shrunken log2 fold change” value is 0.0884. Turning to RRIRHRPPRLPRPRPRPPKKPRP, the “shrunken log2 fold change” value is -0.0115. In the case of RRIRERPPRLPRPRPRPHIRPRP it was -0.126. On to RRIRFRPPRLPRPRPRPVMQPRP, for which the “shrunken log2 fold change” value was -0.0242. For the sequence RRIRARPPRLPRPRPRPLVIPRP, the “shrunken log2 fold change” value is -0.152. Turning to RRIRWRPPRLPRPRPRPSHMPRP, the “shrunken log2 fold change” value was -0.668. RRIRPRPPRLPRPRPRPSYSPRP: the “shrunken log2 fold change” value was -0.149.

For RRIRCRPPRLPRPRPRPMPKPRP, the “shrunken log2 fold change” value was 0.0972. As to RRIRIRPPRLPRPRPRPEIKPRP, the “shrunken log2 fold change” value is -0.14.

In the case of RRIRERPPRLPRPRPRPKIKPRP, the “shrunken log2 fold change” value is -0.6.

In the case of RRIRLRPPRLPRPRPRPTLLPRP, the “shrunken log2 fold change” value was 0.0589. In the case of RRIRWRPPRLPRPRPRPQALPRP it was 0.113. Under RRIRHRPPRLPRPRPRPSFWPRP stands 0.00023; under RRIRARPPRLPRPRPRPFSFPRP, -0.235; under RRIRIRPPRLPRPRPRPSWGPRP, -0.0874. As for RRIRARPPRLPRPRPRPATHPRP, the “shrunken log2 fold change” value stood at 0.186.

On to RRIRLRPPRLPRPRPRPVFLPRP, for which the “shrunken log2 fold change” value is -0.207. In the case of RRIRPRPPRLPRPRPRPKYAPRP it was -0.102; in that of RRIRKRPPRLPRPRPRPHTSPRP, -0.469.

As for RRIRHRPPRLPRPRPRPFGSPRP, the “shrunken log2 fold change” value is -0.0134. Turning to RRIRWRPPRLPRPRPRPVVKPRP, the “shrunken log2 fold change” value was -0.322. With RRIRERPPRLPRPRPRPIYCPRP, the “shrunken log2 fold change” value is -0.143. With RRIRLRPPRLPRPRPRPWGVPRP, the “shrunken log2 fold change” value turned out to be 0.0612. As for RRIRWRPPRLPRPRPRPCESPRP, the “shrunken log2 fold change” value was -0.0177.

Regarding RRIRDRPPRLPRPRPRPFKYPRP, the “shrunken log2 fold change” value was 0.0966. Under RRIRLRPPRLPRPRPRPRTIPRP stands 0.0584; under RRIRHRPPRLPRPRPRPTNYPRP, -0.2; under RRIRKRPPRLPRPRPRPEGKPRP, 0.201. For the sequence RRIRPRPPRLPRPRPRPPMSPRP, the “shrunken log2 fold change” value was -0.0803. In the case of RRIRVRPPRLPRPRPRPHNVPRP, the “shrunken log2 fold change” value is -0.859.

As for RRIRPRPPRLPRPRPRPYGVPRP, the “shrunken log2 fold change” value is -0.157. RRIRARPPRLPRPRPRPFLVPRP: the “shrunken log2 fold change” value was -0.205. As for RRIRNRPPRLPRPRPRPEIEPRP, the “shrunken log2 fold change” value was 0.0339. With RRIRWRPPRLPRPRPRPHKVPRP, the “shrunken log2 fold change” value was -0.431. In the case of RRIRSRPPRLPRPRPRPCYQPRP it was 0.0321.

On to RRIRERPPRLPRPRPRPTREPRP, for which the “shrunken log2 fold change” value came to 0.329. For RRIRWRPPRLPRPRPRPNTRPRP, the “shrunken log2 fold change” value is 0.15. Regarding RRIRHRPPRLPRPRPRPNFPPRP, the “shrunken log2 fold change” value is -0.189. Take RRIRPRPPRLPRPRPRPVGTPRP: the “shrunken log2 fold change” value came out at 0.1.

Consider RRIRFRPPRLPRPRPRPCSGPRP, for which the “shrunken log2 fold change” value is -0.427. For RRIRMRPPRLPRPRPRPCIQPRP, the “shrunken log2 fold change” value was -0.214. As for RRIRSRPPRLPRPRPRPYADPRP, the “shrunken log2 fold change” value was -0.179.

For the sequence RRIRDRPPRLPRPRPRPQLAPRP, the “shrunken log2 fold change” value came out at 0.505.

On to RRIRMRPPRLPRPRPRPPKKPRP, for which the “shrunken log2 fold change” value came out at 1.01. Turning to RRIRRRPPRLPRPRPRPHATPRP, the “shrunken log2 fold change” value is 0.492. As to RRIRWRPPRLPRPRPRPGGYPRP, the “shrunken log2 fold change” value was 0.215. Consider RRIRPRPPRLPRPRPRPIGYPRP, for which the “shrunken log2 fold change” value is -0.0758. As for RRIRIRPPRLPRPRPRPMNRPRP, the “shrunken log2 fold change” value is -0.108. In the case of RRIRDRPPRLPRPRPRPIVSPRP it was 0.041. Turning to RRIRMRPPRLPRPRPRPPCCPRP, the “shrunken log2 fold change” value was found to be 0.928. Under RRIRQRPPRLPRPRPRPCLDPRP stands -0.0986; under RRIRDRPPRLPRPRPRPECCPRP, 0.828. In the case of RRIRNRPPRLPRPRPRPGEAPRP it was 0.33. On to RRIRFRPPRLPRPRPRPEAWPRP, for which the “shrunken log2 fold change” value was determined as 0.00383.

On to RRIRGRPPRLPRPRPRPKSMPRP, for which the “shrunken log2 fold change” value was found to be 0.366. In the case of RRIRSRPPRLPRPRPRPLFYPRP it was -0.413; in that of RRIRHRPPRLPRPRPRPPNEPRP, 0.159; in that of RRIRGRPPRLPRPRPRPHEMPRP, 0.143. With RRIRPRPPRLPRPRPRPCQIPRP, the “shrunken log2 fold change” value is -0.0156. With RRIRYRPPRLPRPRPRPPEQPRP, the “shrunken log2 fold change” value turned out to be 0.357. As for RRIRWRPPRLPRPRPRPKMHPRP, the “shrunken log2 fold change” value is 0.386. As to RRIRWRPPRLPRPRPRPCREPRP, the “shrunken log2 fold change” value was -0.189. Take RRIRPRPPRLPRPRPRPTCYPRP: the “shrunken log2 fold change” value was -0.127. Turning to RRIRERPPRLPRPRPRPQRKPRP, the “shrunken log2 fold change” value came to 0.0503.

Consider RRIRKRPPRLPRPRPRPTLGPRP, for which the “shrunken log2 fold change” value amounted to 1.72.

For the sequence RRIRCRPPRLPRPRPRPSNMPRP, the “shrunken log2 fold change” value is -0.604. For RRIRNRPPRLPRPRPRPETRPRP, the “shrunken log2 fold change” value is 0.254. In the case of RRIRQRPPRLPRPRPRPFDTPRP it was -0.144. For the sequence RRIRWRPPRLPRPRPRPADFPRP, the “shrunken log2 fold change” value was -0.0275. Under RRIRERPPRLPRPRPRPWLVPRP stands -0.436. Under RRIRSRPPRLPRPRPRPLTTPRP stands -0.127; under RRIRWRPPRLPRPRPRPDVSPRP, 0.265. Under RRIRHRPPRLPRPRPRPLKIPRP stands -0.0842; under RRIRRRPPRLPRPRPRPNQEPRP, -0.0479; under RRIRERPPRLPRPRPRPFFHPRP, -0.264.

Turning to RRIRCRPPRLPRPRPRPPQEPRP, the “shrunken log2 fold change” value is -0.069. Take RRIRWRPPRLPRPRPRPGTNPRP: the “shrunken log2 fold change” value came out at 0.243.

RRIRARPPRLPRPRPRPAFKPRP: the “shrunken log2 fold change” value was determined as 0.126.

Regarding RRIRDRPPRLPRPRPRPYYAPRP, the “shrunken log2 fold change” value is -0.201. With RRIRCRPPRLPRPRPRPTIPPRP, the “shrunken log2 fold change” value is -0.417.

In the case of RRIRSRPPRLPRPRPRPYQAPRP, the “shrunken log2 fold change” value is -0.0507. For the sequence RRIRTRPPRLPRPRPRPDMWPRP, the “shrunken log2 fold change” value was -0.126. Take RRIRTRPPRLPRPRPRPIDFPRP: the “shrunken log2 fold change” value is 0.0107. Turning to RRIRRRPPRLPRPRPRPNADPRP, the “shrunken log2 fold change” value was 0.579. In the case of RRIRARPPRLPRPRPRPRYHPRP it was -0.135. In the case of RRIRWRPPRLPRPRPRPRSAPRP it was 0.294; in that of RRIRKRPPRLPRPRPRPMSYPRP, -0.0167; in that of RRIRPRPPRLPRPRPRPLKLPRP, -0.267. In the case of RRIRFRPPRLPRPRPRPNWKPRP, the “shrunken log2 fold change” value was determined as 0.0201. Turning to RRIRRRPPRLPRPRPRPHWWPRP, the “shrunken log2 fold change” value stood at 0.325. Take RRIRQRPPRLPRPRPRPYRTPRP: the “shrunken log2 fold change” value is 0.0218.
